According to patent US20110229459A1 (Chugai, published 2011):
Values belong to the binder of their own block, whether it stands above or below them.

What was measured:
[1] = target: T1, cytoplasmic domain-lacking human NR10 on CHO cells (human, UniProt Q8NI17 20-553); test: FMAT competition on hNR10-expressing CHO cells; blocked ligand: FMAT Blue-labeled hIL-31; mean +/- S.D. (n=3)
T1 construct: The construct lacks the cytoplasmic domain; also called hNR10-expressing CHO cells; hNR10
T1 sequence: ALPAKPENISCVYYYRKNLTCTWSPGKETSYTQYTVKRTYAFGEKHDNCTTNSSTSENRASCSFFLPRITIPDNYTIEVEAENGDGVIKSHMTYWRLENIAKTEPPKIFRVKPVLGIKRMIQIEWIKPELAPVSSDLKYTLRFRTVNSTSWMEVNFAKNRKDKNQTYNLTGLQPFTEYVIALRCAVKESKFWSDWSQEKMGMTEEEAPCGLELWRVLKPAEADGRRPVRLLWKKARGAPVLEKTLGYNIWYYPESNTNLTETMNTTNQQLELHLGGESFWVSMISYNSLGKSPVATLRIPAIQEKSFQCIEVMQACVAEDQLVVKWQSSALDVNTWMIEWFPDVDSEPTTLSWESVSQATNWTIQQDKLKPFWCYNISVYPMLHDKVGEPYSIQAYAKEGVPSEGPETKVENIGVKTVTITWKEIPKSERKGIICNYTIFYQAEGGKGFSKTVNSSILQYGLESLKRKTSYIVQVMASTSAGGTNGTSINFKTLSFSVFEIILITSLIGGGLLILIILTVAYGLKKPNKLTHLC
Experimental: Antibodies were assessed for the activity of inhibiting the IL-31/NR10 binding by using hNR10-expressing CHO cells as described below. The chimeric NS22 antibody and NS22_H0L0 (H chain, H0-SKSC/SEQ ID NO: 54; L chain, L0/SEQ ID NO: 56) were diluted at an appropriate concentration using Assay buffer (10 mM HEPES, 140 mM NaCl, 2.5 mM CaCl₂, 3 mM MgCl₂, 2% FBS, 0.01% NaN₃, pH7.4), and further eight serial dilutions were prepared at a common dilution ration of 2. The dilutions were added at 40 μl/well to plates (96-Well FMAT Plates, Applied Biosystems). Then, FMAT Blue-labeled hIL-31 was diluted 400 times with Assay buffer, and added at 20 μl/well. Finally, a cell suspension adjusted to 2.5×10⁵ cells/ml using Assay buffer was added at 40 μl/well (final 1×10⁴ cells/well). Two hours after addition of cells, the fluorescence (FL1) was measured using the 8200 Cellular Detection System (Applied Biosystems).
Each variant was tested for the activity of inhibiting the hIL-31/hNR10 binding by using FMAT. The test was carried out according to the method as described in Example 4.

[2] = target: T2, rhNR10 (human, UniProt Q8NI17 20-519, limits assumed); test: SPR (Biacore T100): antibody captured on Protein A, rhNR10 as analyte
T2 construct: also called recombinant human NR10; IL-31 receptor
T2 sequence: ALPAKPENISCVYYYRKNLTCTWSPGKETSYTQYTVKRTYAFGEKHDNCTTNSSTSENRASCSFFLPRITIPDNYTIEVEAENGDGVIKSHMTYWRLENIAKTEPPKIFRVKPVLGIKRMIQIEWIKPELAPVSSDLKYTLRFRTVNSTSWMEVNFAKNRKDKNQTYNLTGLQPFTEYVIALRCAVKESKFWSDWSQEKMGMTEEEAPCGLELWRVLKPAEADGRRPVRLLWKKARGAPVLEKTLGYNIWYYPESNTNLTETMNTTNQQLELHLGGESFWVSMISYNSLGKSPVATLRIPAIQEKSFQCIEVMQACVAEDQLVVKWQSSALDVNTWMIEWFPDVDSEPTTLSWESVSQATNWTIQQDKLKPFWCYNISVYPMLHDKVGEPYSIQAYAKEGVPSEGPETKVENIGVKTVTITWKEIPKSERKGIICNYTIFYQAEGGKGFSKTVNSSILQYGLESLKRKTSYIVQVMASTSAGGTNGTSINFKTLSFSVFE
Experimental: Kinetic analysis of the antigen-antibody reaction was carried out using Biacore T100 (GE Healthcare Biosciences). The antigen-antibody interaction was measured by immobilizing rec-Protein A (hereinafter Protein A) (ZYMED) onto a sensor chip, capturing an antibody on the immobilized Protein A, and then reacting the antigen as an analyte. Various concentrations of rhNR10 were used as the antigen. The kinetic parameters, association rate constant kₐ (1/Ms) and dissociation rate constant kd (1/s), were calculated from the sensorgrams obtained by the measurement. Then, KD (M) was determined based on the rate constants. Each parameter was determined using Biacore T100 Evaluation Software version 1.1 (GE Healthcare Biosciences).
The running buffer used was HBS-EP+. Each antibody was prepared at 0.25 μg/ml, or prepared so that about 100 RU would bind to Protein A. rhNR10 used as an analyte was prepared at 0, 38.5, 77.0, and 154 nM, or at 0, 19.25, and 77.01 nM using HBS-EP+. In the measurement, first, the antibody solution was captured on Protein A, and an analyte solution was reacted at a flow rate of 20 μL/min for three minutes. Then, the solution was switched to HBS-EP+, and the dissociation phase was measured for five minutes. […] The obtained sensorgrams were kinetically analyzed using the Biacore-specific data analysis software, Biacore T100 Evaluation Software Version 1.1.

[3] = target: T3, soluble human FcRn (human, UniProt P55899 24-290; P16213 21-119); test: SPR (Biacore 3000), pH 6.0: antibody captured on the chip, human FcRn as analyte, steady state affinity
T3 construct: The stated ranges include the signal regions; also called hFcRn; complex of FcRn and β2-microglobulin
Experimental: The binding to human FcRn was assessed using Biacore 3000.
The affinity was calculated using BIAevaluation software. The obtained sensorgram was used to calculate the amount of hFcRn bound to the antibody immediately before the end of human FcRn injection. This was fitted by the steady state affinity method to calculate the affinity of human FcRn for the antibody.
The binding activities of huPM1-IgG1 and huPM1-M58 to human FcRn were assessed using BIAcore.

IC50 (read off the curve) [1]: ~0.09 µg/mL
B1: Hp9 variant of H0L0 (antibody, V domains shown)
VH: QVQLVQSGAEVKKPGASVKVSCKASGYTFTGYIMNWVRQAPGQGLEWMGLINPYNGGTSYNQQFKGRVTITADESTSTAYMELSSLRSEDTAVYYCARDGYDDGPYTMDYWGQGTLVTVSS
VL: DIQMTQSPSSLSASVGDRVTITCRTSENIYSFLAWYQQKPGKAPKLLIYNAKTLAKGVPSRFSGSGSGTDFTLTISSLQPEDFATYYCQHHYESPLTFGGGTKVEIKR
notes: Variant of H0L0; also called Hp9-VH

fold affinity against H0L0 [2]: ~2 times
B2: H0L12 (H chain, H0-M58; L chain, L12) (antibody, V domains shown)
VH: QVQLVQSGAEVKKPGASVKVSCKASGYTFTGYIMNWVRQAPGQGLEWMGLINPYNGGTSYNQKFKGRVTITADESTSTAYMELSSLRSEDTAVYYCARDGYDDGPYTMDYWGQGTLVTVSS
VL: DIQMTQSPSSLSASVGDRVTITCQTSEDIYSFVAWYQQKPGKAPKLLIYNAQTEAQGVPSRFSGSGSGTDFTLTISSLQPEDFATYYCQHHYDSPLTFGGGTKVEIKR

fold binding activity against huPM1-IgG1 [3]: ~1.4 times
B3: huPM1-M58 (humanized anti-IL-6 receptor antibody with constant region M58) (antibody)
heavy: QVQLQESGPGLVRPSQTLSLTCTVSGYSITSDHAWSWVRQPPGRGLEWIGYISYSGITTYNPSLKSRVTMLRDTSKNQFSLRLSSVTAADTAVYYCARSLARTTAMDYWGQGSLVTVSSASTKGPSVFPLAPSSKSTSGGTAALGCLVKDYFPEPVTVSWNSGALTSGVHTFPAVLQSSGLYSLSSVVTVPSSNFGTQTYTCNVDHKPSNTKVDKTVERKSCVECPPCPAPPVAGPSVFLFPPKPKDTLMISRTPEVTCVVVDVSQEDPEVQFNWYVDGVEVHNAKTKPREEQFNSTFRVVSVLTVVHQDWLNGKEYKCKVSNKGLPAPIEKTISKTKGQPREPQVYTLPPSQEEMTKNQVSLTCLVKGFYPSDIAVEWESNGQPENNYKTTPPMLDSDGSFFLYSKLTVDKSRWQEGNVFSCSVMHEALHNHYTQKSLSLSP
light: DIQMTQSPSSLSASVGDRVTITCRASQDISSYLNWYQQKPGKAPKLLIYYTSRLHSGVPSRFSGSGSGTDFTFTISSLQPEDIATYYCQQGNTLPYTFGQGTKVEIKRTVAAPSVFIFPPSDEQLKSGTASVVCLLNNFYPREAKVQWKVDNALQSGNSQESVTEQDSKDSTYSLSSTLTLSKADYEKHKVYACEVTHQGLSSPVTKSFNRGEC
notes: copies: 2 + 2
